The nature of the series: yeast display, Sf9 membrane polyspecificity reagent, FACS + sequencing; frameworks hold sequencing errors. The method, boiled down:
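Nanobodies came from a synthetic yeast display library in Saccharomyces cerevisiae BJ5465, induced with galactose for 36–48 hours and stained for 1 hour at 4 °C with 10% biotinylated, detergent-solubilized Sf9 membrane reagent. Cells were enriched on streptavidin microbeads and then FACS-sorted, with low and high (top ~1%) gates set on anti-HA fluorescence for expression and streptavidin fluorescence for reagent binding. Each polyreactivity label reflects the gate a clone came from. Genes were amplified by colony PCR, sequenced by MiSeq 2 × 250 and filtered by CDR length.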
For the sequence “QVQLVESGGGLVQAGGSLRLSCAASGSTFAAYAMGWYRQAPGKERELVAAISATGGSTYYADSVKGRFTISRDNAKNTVYLQMNRLKPEDTAVYYCAADYPSWYGYRYYYWGQGTQVTVSS”, the “polyreactivity (PSR sort gate)” value is recorded as “high polyreactivity”.

For “QVQLVESGGGLVQAGGSLRLSCAASGSTFDSNAMGWYRQAPGKERELVAGITIGGSTNYADSVKGRFTISRDNAKNTVFLQMNSLKPEDTAVYYCNVVKYVYIYSYWEYYYWGQGTQVTVSS”, the “polyreactivity (PSR sort gate)” value is given as “low polyreactivity”. Under “QVHLVESGGGLVHAGGSLRLSCAASGSTFPGYGMGWYRQAPGQERELVATNRNGGITNYADSVKGRFTISRDNAKNTVYLQMNSLKAEDTAVYYCAADVVQYLYYFRLDYWGQGTQVTVSS” stands “low polyreactivity”. Take “QVQLVESGGGLVQAGGSLRLSCAASGSTRYNAMGWYRQAPGKERELVASIRGNAGSTYYADSVKGRFTISRDNAKNTVYLQMNSLKPEDTAVYYCNARYWYRYGGYKPVGGYYWGQGTQVTVSS”: the “polyreactivity (PSR sort gate)” value was “high polyreactivity”.

For the sequence “QVQLVESGGGLVQAGGSLRLSCAASGSTFGHYAMGWYRQAPGKERELVAAISWSGGSTSYADSVKGRFTISRDNAKNTVYLQMNSLKPEDTAVYYCNKRQEWFHFPYTRVYYWGQGTQLTVSS”, the “polyreactivity (PSR sort gate)” value is “low polyreactivity”. As to “QVQLVESGGGLVQAGGSLRLSCAASGRTFDYYAMGWYRQAPGKERELVAAITSGGSTYYADSVKGRFTISRDNAKNTDYLQMNSLKPEDTAVYYCAKSWALTRGYGSRYYVYRYDYWGQGTQVTVSS”, the “polyreactivity (PSR sort gate)” value is given as “low polyreactivity”. To “QVQLVESGGGLVQAGGSLRLSCAASGSIFRWNAMGWYRQAPGKERELVAGIRWDSGSTYYADSVKGRFTISRDNAKNTVYLQMNSLKPEDTAVYYCAADLFDFLLIDGFAVVTYGYWGQGTQVNVSS” belongs “low polyreactivity”. In the case of “QVQLVESAGGLVQAGGSLRLSCAASGSTFVTNVMGWYRQAPGKERELVAAISYSGGNTYFEDSVKGRFTISRDYAKNTVYLQMNSLKPEDTAVYSCAASYKPFKKMGYWGQGTQVTVSS”, the “polyreactivity (PSR sort gate)” value was “high polyreactivity”. To “QVQLVESGGGLVQAGGSLRLSCAASGSIFKYYAMGWYRQAPGKERELVAAISSGGRTNYADSVKGRFTISRDNAKNTVYLQMNSLKPEDTAVYYCAAGWYRKHRQPSGVGGDYWGQGTQVTVSS” belongs “high polyreactivity”; to “QVQLVESGGGLVQAGGSLRLSCAASGSTIYRNTMGWYRQAPGKERELVAAISRSGSSTYYADSVKGRFTISRDNAKNTVFLQINSLKPEDTAVYYCAKEGLSYRYYYWGQGTQLTVSS”, “high polyreactivity”; to “QVQLVESGGGLVQAGGSLRLSCAASGRTFWNYAMGWSRQAPGKERELVAVIRFSDGSTYYADSVKGRFTISRDNAKNTVYLQMNSLKPEDTAVYYCAAKGPRRWGSGFDYWGQGTQVTVSS”, “low polyreactivity”. To “QVQLVESGGGLVQAGVSLRLSCAASARSFAWKAMVWYRQAPGKERELVAAITWSGGSTYYADSVKGRFTISRDNGKNTVYFQLNSLKQEDTAVYYCNKLYPYYATHTTRGLDYWGQGTQVTVSS” belongs “high polyreactivity”; to “QVQLVESGGGLVQAGGSLRLSCAASGITFKYYTMGWYRPAPGKERELVAAITSRAGRTYADSVKGRFTISRDNAKNTVYLQMNSLKPEDTAVYYCDKKWRGNTYLYDYWGQGTQVTVSS”, “high polyreactivity”. To “QVQLVESGGGLVQAGGSLRLSCAPSGRTLFHYAMGWYRQAPGKERELVAAISSGGRTNYADSVKGRFTISRDNAKNTVYLQMNSLKPEDTAVYYCAARRFYLQHGFEYWGQGTQVTVSS” belongs “high polyreactivity”; to “QVQLVESGGGLVQAGGSLRLSCAASGSIFGFYAMGWYIQAPGKERELVAAISDSGDSTYYADSVKGRFTISRDNAKNTVYLQMNSLKPEDTAVYYCATDGRSNYYWGDYWGQGTHVTVSS”, “low polyreactivity”. “QVQLVESGGGLVQAGGILRLNCAASGFIFRRYAMGWSRQAPGKERELVAAISSGGTSTYYADSVKGRFTISRDNAKYTVYLQKNSLKPEDTAVSYCNVDTDPYYWGGDYYWGQGTQVTVSS”: the “polyreactivity (PSR sort gate)” value was “high polyreactivity”. On to “QVQLVESGGGLVQAGGSLRLSCAASGFTFRAYAMGWYRQAPGKERELVAAISSGGGRTYYADSVKGRFTISRDNAKNTVYLQMNSLKPEDTAVYYCAADNYPGTRYDYWGQGTQVTVSS”, for which the “polyreactivity (PSR sort gate)” value is reported as “high polyreactivity”. Consider “QVQLVESGGGLVQAGGSLRLSCAASGIIFRPNAMGWYRQEPGKERELVAAISRNGVRTYYSDSVKGRFTISRDNAKITVYLQMNSLKPEDTAVYYCNRDYNAAYDWGEGTQVTVSS”, for which the “polyreactivity (PSR sort gate)” value is “high polyreactivity”. Under “QVQLVESGGGLVQAGGSLRLSCAASGSTFKPYTMGWYRQAPGKERELVAGISSVDSTYYADSVKGRFTISRDNAKNTVYLQMNSLKPEDTAVYYCAADTVYIFSSAINGEFGYWGQGTQVTVSS” stands “low polyreactivity”; under “QVQLVESGGGLVQAGGSLRLSCAASGRTFIGYNMGWYRQAPGKERELVAAITWNGGRTYYADSVKGRFTISRDNAKNTVYLQMNSLKPEDTAVYYCAAPRRVVIGGGDYWGQGTQVTVSS”, “high polyreactivity”; under “QVQLVESGGGLVQAGGSLRLSCAASGYAMGWYRQAPGKERELGAAITSGGSTNYADSVKGRFTISRDNAKNTVYLQMNSVKPEDTAVYYCAAAYSLYGHRYDYWGQGTQVTVSS”, “low polyreactivity”. “QVQLVESGGGLVQAGGSLRLSCAASGSIFRPSAMGWYRQAPGKERELVAAIRWSTGNTYYADSVKGRFTISRDNAKNTVYLQMNSLKPEDTAVYYCAAAYWPVVWFYYWGQGTQVTVSS”: the “polyreactivity (PSR sort gate)” value is “low polyreactivity”.

For “QVQLVESGGGLVQAGGSLRLICAASGSTFHAYAMGWYRQAPGKEREMVAAISWRGGSTYYADSVKGRFTISRDNAKNTVYLQMNSLKPEDTAVYYCAASVQGLFGTSGMEGVDYWGQGTQVTVSS”, the “polyreactivity (PSR sort gate)” value is recorded as “high polyreactivity”. Under “QVQLVESGGGLVQAGGSLRLSCAASGRIFYPYAMGWYRQAPGKERELVAAITSGGRTNYADSVKGRFTISRDNAKNTVYLQMNSLKPEDTAVYYCAATRFRHGKRMDYWGQGTQVTVSS” stands “high polyreactivity”; under “QVQLVESVGGLVQAGGSLRLSCAASGRIFYNYVMGWYRQAPGKERELVAAISSDGGRTYYADSVKGRFTISRDNAKNTVYLQMNSLKPEDTAVYYCAAEWPYGGNGPGHTYEYWGQGTQVTVSS”, “high polyreactivity”; under “QVQLVESGGGLDQAGGSLRLTCAASGFTFQVYAMGWYRQAPGKERELVADITSGTSTNYADSVKGRFTSSRDNAKNTVYLQMNSLKPEDTAVYYCANVYTYKSFDYWGQGTQVTVSS”, “low polyreactivity”. To “QVQLVESGGVLVQAGGSLRLTCAASGFTFSRNTMGWYRQAPGKERELVAAIDSTGGSTYYADSVKGRFTISRDNAKNTVYLQMNSLKPEDTAVYYCATVLPDGRVWYEGYYWGQGTQVTVSS” belongs “low polyreactivity”; to “QVQLVESGGGLVQAGGSLRLSCAASGFTFYGYAMGWYRQAPGKERELVASISWSGGTTYYADSVKGRFTISRDNAKNTVYLQMNSLKPEDTAVYYCNAVRYRYGVFPYYYWGQGTQVTVSS”, “high polyreactivity”. Under “QVQLVESGGGLVQAGGSLRLSCAASGSIFYFNAMGWYRQAAGKEWELVATISRRGGSTYYADSVKGRFTISRDNAKKTVYLQMNSLKPEDTAVYYCAADYYTLYPVYIKRYGYWGQGTQVTVSS” stands “high polyreactivity”. Consider “QGQLVESGGALVQAGGSLRLSCAASGRILRYYAMGWNRQAPGKERELVAVITSSDGSTYYADSVKGRFTISRDNAKNTVYLQQNSLKPEDTAVDYCAAAPLWRVASWWDPYRRYDYWGQGTQVTVSS”, for which the “polyreactivity (PSR sort gate)” value was “low polyreactivity”. Under “QVQLQESGGGLVHPGGSLRLSCAASCSISHYIFMGWYRQAPGKEREFVAGIGYGGTTNYADSVKGRFTISRDNAKNTVYLQMNSLKPEDTAMYYCAAREATEFYLYYWGQGTQVTVSS” stands “low polyreactivity”; under “QVQLVESGGALVQAGGSLRLSCAASGYTFSKNTMGWYRQAPGKEREFVAAINWSGGSTYYADSVKGRFTISRDNEKNTVYLQMNSLKPEDTAVYYCAARRGGRRGYDYWGQGTQVTVSS”, “high polyreactivity”. “QVQLVESGGGLDQAGGSLRLSCAASGLIFQVYAMGWYRQAPGKERELVAAISRSGGRTYNADSVKGRFTISRDNAKNTVYLQMNSLKPEDTAVYYCAAESYVDYPRWYDYWGQGTQVTVSS”: the “polyreactivity (PSR sort gate)” value was “high polyreactivity”.

Take “QVQLVESGGGLVQAGGSLRLSCAASGSIFGNKAMGWYRQAPGKERELVAASSNDGDNSYYADSVKGRFTISRDKAKNTVYLQMNSLKPEDTAVYYCAADYVGVTSVRYDYWGQGTEVTVSS”: the “polyreactivity (PSR sort gate)” value is listed as “low polyreactivity”.

For the sequence “QVQLVESGGGLDQAAGSLRLSCAASGSNFQWYTMGWYRQAPGKERELVAAITWSGASTYYADSVKGRFTISRDNAKNTVYLQMNSLKPEDTAVYYCAADWRRGTGFYYWGQGTQVTVSS”, the “polyreactivity (PSR sort gate)” value is “high polyreactivity”.

“QVQLVESGGGLVQAGGSLRLSCAASGFTFVGYAIGWYRQAPGKERDMVAAITRRGGSTYYADSVKGRFTISRDNAKNTVYLQMNSLKPEDTAVYYCNKSSYRISVPRYDYWGQGTQVTVSS”: the “polyreactivity (PSR sort gate)” value is on record as “high polyreactivity”. To “QVQLVESGGGLVQAGGILRLICAASGSIFGKYTMGWYRHAPGKERELVAGITYRAGSTYYADSVKGRFTISRDNAKNTVYLQMNSLKPEDTAVYYCAARFYFRWYYYGSYANYWGQGTQVTVSS” belongs “high polyreactivity”; to “QVQLVESGGGLVQAGGSLRLSCAASGSIFWQNTMGWYRQAPGKERELVAAISWSGGRTYYADSVKGRFTISRDNAKNTVSLPMNSLKPEDTAVYYCNKLLSQRRYHSEMDYWGQGTQVTVSS”, “high polyreactivity”. Turning to “QVQLVESGGGLVQAGGSLRLSCAASGSIFYWYAMGWYRQAPGKERELVAAISSGGSTNYADSVKGRFTISRDNAKNTVYLQMNSLKPEDTAVYYCNADVPVRYGPIYFRRLDYWGQGTQVTVSS”, the “polyreactivity (PSR sort gate)” value was “low polyreactivity”.

As for “QVQLVESGGGLVQAGGSLRLTCAASGSTLNYYAMGWYRQAPGKERELVAAIRSGGNTNYADSVKGRFTISRDNAKNTVYLQMNSLKPEDTAVYYCAKDESYFYDRVPLDYWGQGTQVTVSS”, the “polyreactivity (PSR sort gate)” value is recorded as “low polyreactivity”.
